The text below walks through data of patent publication US20240392020A1 (JIANGSU HENGRUI PHARMACEUTICALS, published 2024).

In general, EC50 refers to the concentration that produces a half-maximal response.

T1: B7H3 on the recombinant cell line CT26-B7H3 (UniProt Q5ZPR3 29-534, limits assumed)
T1 construct: whole, on cells
T1 sequence (looked up): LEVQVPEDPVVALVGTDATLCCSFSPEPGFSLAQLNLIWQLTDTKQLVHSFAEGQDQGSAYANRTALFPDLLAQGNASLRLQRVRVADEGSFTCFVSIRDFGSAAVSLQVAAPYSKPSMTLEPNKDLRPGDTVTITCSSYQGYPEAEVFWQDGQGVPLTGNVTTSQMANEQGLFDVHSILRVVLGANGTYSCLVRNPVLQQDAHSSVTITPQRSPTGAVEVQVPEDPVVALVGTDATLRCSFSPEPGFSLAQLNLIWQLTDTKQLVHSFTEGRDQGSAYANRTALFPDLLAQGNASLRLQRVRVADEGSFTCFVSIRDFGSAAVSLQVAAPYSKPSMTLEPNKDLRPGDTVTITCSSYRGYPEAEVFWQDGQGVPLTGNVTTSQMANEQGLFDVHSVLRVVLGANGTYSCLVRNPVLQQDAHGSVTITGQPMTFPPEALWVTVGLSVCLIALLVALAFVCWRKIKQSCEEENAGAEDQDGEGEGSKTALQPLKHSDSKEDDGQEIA

B1: F8 (antibody)
heavy: not shown
light: DTVVTQEPSFSVSPGGTVTLTCGLSSGSVSTSHYPSWYQQTPGQAPRMLIYNTNTRSSGVPDRFSGSILGNKAALTITGAQADDESDYYCAIHVDRDIWVFGGGTKLTVLSGAPRFLTRPKAFVVSVGKDATLSSQIVGNPTPQVSWEKDQQPVAAGARFRLAQDGDLYRLTILDLALGDSGQYVSRARNAIGEAFACVGLQVDAEA
B2: F7 (antibody)
heavy: not shown
light: DTVVTQEPSFSVSPGGTVTLTCGLSSGSVSTSHYPSWYQQTPGQAPRMLIYNTNTRSSGVPDRFSGSILGNKAALTITGAQADDESDYYCAIHVDRDIWVFGGGTKLTVLSGAPRFLTCPKAFVVSVGKDATLSCQIVGNPTPQVSWEKDQQPVAAGARFRLAQDGDLYRLTILDLALGDSGQYVCRARNAIGEAFAAVGLQVDAEA
B3: F10 (antibody)
heavy: not shown
light: DTVVTQEPSFSVSPGGTVTLTCGLSSGSVSTSHYPSWYQQTPGQAPRMLIYNTNTRSSGVPDRFSGSILGNKAALTITGAQADDESDYYCAIHVDRDIWVFGGGTKLTVLSGAPRFLTCPKAFVVSVGKDATLSSQIVGNPTPQVSWEKDQQPVAAGARFRLAQDGDLYRLTILDLALGDSGQYVSRARNAIGEAFAAVGLQVDAEA
B4: F9 (antibody)
heavy: not shown
light: DTVVTQEPSFSVSPGGTVTLTCGLSSGSVSTSHYPSWYQQTPGQAPRMLIYNTNTRSSGVPDRFSGSILGNKAALTITGAQADDESDYYCAIHVDRDIWVFGGGTKLTVLSGCPRFLTRPKAFVVSVGKDATLSSQIVGNPTPQVSWEKDQQPVAAGARFRLAQDGDLYRLTILDLALGDSGQYVSRARNAIGEAFAAVGLQVDAEA
B5: F6 (antibody)
heavy: not shown
light: DTVVTQEPSFSVSPGGTVTLTCGLSSGSVSTSHYPSWYQQTPGQAPRMLIYNTNTRSSGVPDRFSGSILGNKAALTITGAQADDESDYYCAIHVDRDIWVFGGGTKLTVLSGCPRFLTRPKAFVVSVGKDATLSCQIVGNPTPQVSWEKDQQPVAAGARFRLAQDGDLYRLTILDLALGDSGQYVCRARNAIGEAFAAVGLQVDAEA
B6: F5 (antibody)
heavy: not shown
light: DTVVTQEPSFSVSPGGTVTLTCGLSSGSVSTSHYPSWYQQTPGQAPRMLIYNTNTRSSGVPDRFSGSILGNKAALTITGAQADDESDYYCAIHVDRDIWVFGGGTKLTVLSGAPRFLTRPKAFVVSVGKDATLSCQIVGNPTPQVSWEKDQQPVAAGARFRLAQDGDLYRLTILDLALGDSGQYVCRARNAIGEAFACVGLQVDAEA
B7: F11 (antibody)
heavy: not shown
light: DTVVTQEPSFSVSPGGTVTLTCGLSSGSVSTSHYPSWYQQTPGQAPRMLIYNTNTRSSGVPDRFSGSILGNKAALTITGAQADDESDYYCAIHVDRDIWVFGGGTKLTVLQGSPPEFLRFPRPVRVVSGAEAELKCVVLGEPPPVVVWEKGGQQLAASERLSFPADGAEHGLLLTAALPTDAGCYVCRARNAAGEAYAAAAVTVLEPP
B8: V3 (antibody)
heavy: not shown
light: QIVLTQSPAILSASPGEKVTMTCRASSSVSYMNWYQQKPGSSPKPWIYATSNLASGVPARFSVSVSGTSHSLTISRVEAEDAATYYCQQWSSNPLTFGAGTKLELKSGAPRFLTRPKAFVVSVGKDATLSCQIVGNPTPQVSWEKDQQPVAAGARFRLAQDGDLYRLTILDLALGDSGQYVCRARNAIGEAFAAVGLQVDAEA
B9: V4 (antibody)
heavy: not shown
light: QIVLTQSPAILSASPGEKVTMTCRASSSVSYMNWYQQKPGSSPKPWIYATSNLASGVPARFSVSVSGTSHSLTISRVEAEDAATYYCQQWSSNPLTFGAGTKLELKQGSPPCFLRFPRPVRVVSGAEAELKCVVLGEPPPVVVWEKGGQQLAASERLSFPADGAEHGLLLTAALPTDAGVYVCRARNAAGEAYAAAAVTVLEPP

One experiment deals with T1, B7H3 on the recombinant cell line …. Briefly: FACS, CT26-B7H3 cells.
For the molecule B1, the EC50 amounted to 3.14 nM.

Consider B2, for which the concentration for a half-maximal effect (EC50) is 3.38 nM.

On to B3, for which the half-maximal effective concentration (EC50) worked out at 3.94 nM.

As for B4, the EC50 is 3.52 nM.

For B5, the EC50 was found to be 2.71 nM.

As to B6, the EC50 stood at 1.21 nM.

For the molecule B7, the half-maximal effective concentration (EC50) is 6.15 nM.

For another experiment the target is unchanged. Briefly: FACS, CT26-B7H3 cells. This is another data set of the same source.
B8: the EC50 amounted to 3.6 nM.

As to B9, the EC50 turned out to be 2.9 nM.
